Where a chain is given by its changes, count along the chain named.
T1: ALPI (screening and SPR/ELISA protein) (UniProt P09923 20-503, limits assumed)
T1 sequence (looked up): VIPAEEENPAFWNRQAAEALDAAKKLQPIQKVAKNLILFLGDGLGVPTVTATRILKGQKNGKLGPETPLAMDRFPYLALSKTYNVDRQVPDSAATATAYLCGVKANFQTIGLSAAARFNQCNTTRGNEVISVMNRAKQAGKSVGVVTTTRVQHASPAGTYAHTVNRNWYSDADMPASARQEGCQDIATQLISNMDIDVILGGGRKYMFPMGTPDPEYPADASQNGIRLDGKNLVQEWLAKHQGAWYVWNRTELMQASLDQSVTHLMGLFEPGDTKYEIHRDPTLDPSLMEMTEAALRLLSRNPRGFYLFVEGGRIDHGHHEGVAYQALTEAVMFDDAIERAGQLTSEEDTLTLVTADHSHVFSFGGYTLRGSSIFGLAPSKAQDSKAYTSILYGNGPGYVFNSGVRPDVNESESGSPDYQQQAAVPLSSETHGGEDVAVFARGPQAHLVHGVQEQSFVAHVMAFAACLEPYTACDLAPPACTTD

T2: human ALPPL2 (recombinant protein) (human, UniProt P10696 20-503)
T2 chain: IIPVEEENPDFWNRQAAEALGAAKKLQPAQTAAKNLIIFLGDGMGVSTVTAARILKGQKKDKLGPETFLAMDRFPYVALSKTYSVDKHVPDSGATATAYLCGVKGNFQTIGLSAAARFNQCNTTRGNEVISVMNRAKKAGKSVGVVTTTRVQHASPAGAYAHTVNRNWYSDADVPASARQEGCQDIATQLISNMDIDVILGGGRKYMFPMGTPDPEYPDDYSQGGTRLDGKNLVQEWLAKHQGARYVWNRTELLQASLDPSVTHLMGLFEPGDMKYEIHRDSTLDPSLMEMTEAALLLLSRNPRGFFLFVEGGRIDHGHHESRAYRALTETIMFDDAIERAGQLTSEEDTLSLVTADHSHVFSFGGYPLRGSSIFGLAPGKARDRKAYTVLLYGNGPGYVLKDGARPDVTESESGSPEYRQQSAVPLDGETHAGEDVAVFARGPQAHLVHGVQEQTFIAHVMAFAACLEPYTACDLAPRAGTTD

B1: AB1C21 (antibody, V domains shown)
VH: QQQLVESGGGLVKPGASLTLTCKASGFSFSSGYDMCWVRQAPGKGLEWIACIYTGDGSTYYASWARGRFTISKTSSTTVTLQMTSLTAADTATYFCAREDVSSGDYTFNLWGPGTLVTVSS
VL: YDMTQTPASVEVTVGGTVTIKCQASEDIYSGLAWYQQKPGQRPKLLIYKASNLASGVPSRFSGSGSGTEFTLTISGVECADAATYYCQQGVTYSNVDNTFGGGTEVVVK
notes: Rabbit antibody cloned from a single B cell
B2: AB1C18 (antibody, V domains shown)
VH: QSLEESGGDLVKPGASLTLTCTASGFSFSSYWTCWVRQAPGKGLEWLGCTDGGSSGDTYYATWAKGRVAISKTSSTTVTLQVTSLTAADTATYFCARNLITWDLWGPGTLVTVSS
VL: IVMTQTPSSKSVPVGDTVTINCQASESVYNNNQLSWFQQKPGQPPKLLIYWASKLASGVPSRFKGSGSGTQFTLTISDVVCDDAATYYCAGYKSSITDGNAFGGGTEVVVK
notes: as for B1
B3: AB1C14 (antibody, V domains shown)
VH: QSLEESGGDLVKPGASLTLTCTASGFSFSSNYWICWVRQAPGKGLEWIACIATGSSGSTYYASWAKGRFTISKTSSTTVTLQMTSLTAADTATYFCARGEYTYGYVEYAIVTQYYFDLWGPGTLVTVSS
VL: FEMTQTPSSVSAAVGGTVTINCQASQNIYSNLAWYQQKPGQRPKLLIYGASNLESGVPSRFKGSGSGTEYTLTISDLECDDAATYYCQSADYIGSAYNAFGGGTEVVVK
notes: as for B1
B4: AB1C35 (antibody, V domains shown)
VH: QEQLKESGGDLVKPGASLTLTCTASGFTLSTYWVCWVRQAPGKGLEWIGCIDTVSSGDTYFASWAKGRFTGSKTSSTTVTLQMTSLTAADTATYFCARRTGSRWTLWGPGTLVTVSS
VL: QVLTQTPSSVSAGVGGTVTINCQASESVYNNNYLSWYQQKPGQPPKLLIYQASTLASGVPSRFKGSGSGTQFTLTISDVQCDDAATYYCLGAFVSNGWYFAFGGGTEVVVK
notes: as for B1
B5: AB1C17 (antibody, V domains shown)
VH: B4 VH with R103G
VL: LVMTQTPSPVSAAVGGTVTISCQSSQSVYNNNYLAWFQQNPGQPPKLLIYWASKLASGVPSRFKGSGSGTQFTLTISDVQCDDAATYYCLGAYVSNGWYFAFGGGTEVVVK
notes: as for B1
B6: AB1C28 (antibody, V domains shown)
VH: B4 VH with R103G
VL: B5 VL with T106I
notes: as for B1
B7: AB2C128 (antibody, V domains shown)
VH: QSLEESGGDLVKPGASLTLTCTASGFSFSSSYWIYWVRQAPGKGLEWIACIYTASRGSIYYASWTKGRFTISKTSSTTVTLQMTSLTAADTATYFCARGPDYTYGYIGDALTRLDLWGQGTLVTVSS
VL: AVLTQTPSPVSAAVGGTVSISCQSSQSVYDNNWLAWYQQKAGQPPKLLIYAASTLSSGVPSRFKGSGSGIEFTLTISDVQCDDAATYYCAGGYSSTSDIEDNTFGGGTEVVVK
notes: as for B1
B8: AB2C135 (antibody, V domains shown)
VH: B7 VH with Y35C, G57D, T65A, D101Y, T103S, G105A
VL: B7 VL with A41P, A51E, T54K, S56A, I70T, E71Q, D78G, A85S, T96S
notes: as for B1
B9: AB1C15 (antibody, V domains shown)
VH: QSLEESGGDLVKPGASLTLTCTASGFSFSSSYYMCWVRQAPGKGLEWIACIYTTYGGTWYASWAKGRFTISKTSSTTVTLQMTSLTDADTATYFCARSSISDVTYFNLWGPGTLVTVSS
VL: DIVMTQTPASVEAAVGGTVTIKCQASQSISNYLAWYQQKPGQPPELLIYRASTLESGVPSRFKGSGSGTGFTLTISDLECADAATYYCQSYYDNNNYAFGGGTEVVVK
notes: as for B1
B10: AB1C32 (antibody, V domains shown)
VH: QEQLEESGGDLVKPGGTLTLTCKASGIDFSSDYYMCWVRQAPGKGLEWIACIYTGSSDDTYYASWAKGRFTISKTSSPTVALQMTSLTAADTATYFCARGGYGGKDLWGPGTLVTVSS
VL: VVMTQTPASVEAAVGGTVTIKCQASQSIGSLLAWYQQKPGQPPNLLIYWASTLASGVPSRFKGSGSGTEFTLTISDLECDDAATYYCQCTYGSSGSSSYLNAFGGGTEVVVK
notes: as for B1
B11: AB1C34 (antibody, V domains shown)
VH: QSLEESGGDLVKPGASLTLTCTASGFDFSSNGMCWVRQAPGKGLEWIACIYVDSSDSTYYASWVNGRFTISKTSSTTVTLQMTSLTAADTATYFCARGYGYVGSAMDLWGQGTLVTVSS
VL: NIVMTQTPSPVSGAVGGTVTIKCQASQSISNELAWFQQKPGQRPKLLIYGASTLESGVPSRFSGSGSGTEFTLTISDLECADAATYYCQSAYYSSSSSYANTFGGGTEVVVK
notes: as for B1
B12: AB1C23 (antibody, V domains shown)
VH: QSLEESGGDLVKPGASLTLTCTASGFSFSSTYYMCWVRQAPGKGLEWIACIYTGSTGSTYYASWAKGRFTGSKTSSTTVTLQMTSLTAADTATYFCARGDYTYAYAGGAHVTNYYFDLWGPGTLVTVSS
VL: LVMTQTPSSVSAAVGGTVTINCQASQNIYSNLAWYQQKPGQRPKLLIFGASNLESGVPSRFKGSGSGTEFTLTISDLECDDAATYYCQTADYSSSTDWGAFGGGTEVVVK
notes: as for B1
B13: AB1C39 (antibody, V domains shown)
VH: QSLEESGGDLVKPGASLTLTCTASGFSFSSSYYMCWVRQAPGKGLEWIACIYAGSSGGTYYASWAKGRFTISKTSSTTVTLQMTSLTAADTATYFCARAFSYYYSDGYTGYAYGLWGPGTLVTVSS
VL: DIVMTQTPASVEAAVGGTVTIKCQASQSISSYLAWYQQKPGQPPKLLIYRASTLASGVPSRFKGSGSGTQFTLTISDLECADAATYYCQGAYYSSSSSYGFGGGTEVVVK
notes: as for B1
B14: AB2C103 (antibody, V domains shown)
VH: QSLEESGGDLVKPGASLTLTCTASGFDFSSYYWICWVRQAPGKGLEWIACIYGGSSGSTYYATWAKGRFTISETSSTTVTLQMTSLTAADMATYFCARSLYTWRYADYAASTLNLWGPGTLVTVSS
VL: AVLTQTPSPVSAAVGGTVSISCQSSQSVYNVNLLAWYQQKPGQPPKLLIYETSKLESGVPSRFSGSGSGTQFTLTISDVQCDDAATYYCAGGYSSSKDNSFGGGTEVVVK
notes: as for B1
B15: AB1C11 (antibody, V domains shown)
VH: QSLEESGGDLVKPGASLTLTCKASGFTISSIWICWVRQAPGKGLEWIACIYAGSDGGSYYASWARGRFTISKTSSTTVTLQMTSLTAADTATYFCARASNSWQYGYAGYGNYKDYFNLWGPGTLVTVSS
VL: FELTQTPSSVEAVVGGTVTINCQASESISNLLAWYQQKSGQPPKVLIYKASALPSGVSSRFKGSGSGTEFTLTISDLECADAATYYCQSYYGSSDTGNTFGGGTEVVVK
notes: as for B1
B16: AB1C13 (antibody, V domains shown)
VH: QEQLEESGGDLVKPEGSLTLTCTASGFSFSWICWVRQAPGKGLEWIACIYAGSSAKTYYASWAKGRFTISKASSTTVTLQMTSLTAADTATYFCARASNYYRYGVAGYADYTGYFNLWGPGTLVTVSS
VL: FELTQTPASVEAAVGGTVTIKCQASQSISSWLAWYHQKPGQRPKLLIYGTSTLASGVPSRFKGSGSGTEFTLTISDLECADAATYYCQNYGGSSSGDAFGGGTEVVVK
notes: as for B1

Target: T3, human ALPPL2 (recombinant protein) (human, UniProt P10696 20-503, limits assumed)
T3 construct: biotinylated where captured on streptavidin
Assay: screen of rabbit B-cell clones by ELISA and FACS
Source text: (§1) Specific clones were screened and identified by ELISA and high throughput flow cytometry (FIG. 3). Rabbit kidney cells were transfected with either truncated (for ELISA screen) or full-length (for FACS screen) ALPI and ALPPL2.

Row | binding result | Binder
1 | binds | B1
2 | binds | B2
3 | binds | B3
4 | binds | B4
5 | binds | B5
6 | binds | B6
7 | binds | B7
8 | binds | B8
9 | binds | B9
10 | binds | B10
11 | binds | B11
12 | binds | B12
13 | binds | B13
14 | binds | B14
15 | binds | B15

Target: T1, ALPI (screening and SPR/ELISA protein)
Assay: screen of rabbit B-cell clones by ELISA and FACS
Source text: as §1

Row | binding result | Binder
16 | no binding | B1
17 | no binding | B2
18 | no binding | B3
19 | no binding | B4
20 | no binding | B5
21 | no binding | B6
22 | no binding | B7
23 | no binding | B8
24 | no binding | B9
25 | no binding | B10
26 | no binding | B16
27 | no binding | B11
28 | no binding | B12
29 | no binding | B13
30 | no binding | B14
31 | no binding | B15

Target: T2, human ALPPL2 (recombinant protein)
Assay: BLI; single concentration

Row | Kd | Binder
32 | 1.4 nM | B1
33 | 1.4 nM | B2
34 | 4.1 nM | B4
35 | 0.6 nM | B9
36 | 2 nM | B13
